# Laboratory results taken from the DeepSol protein solubility set.
# Experiment: soluble on expression in E. coli; label from the status in PepcDB or PDB records
row,Sequence,soluble on expression in E. coli
1,MHFPISMAVPARFTGPLPESCDVVVIGAGVIGVMTGWYLAERGFRVTVCEKGRVAGEQSSRNWGWIRQQGRDPDELPIMVESLRLWQGLAQSLGNPFGFRQTGVLYLANREEQLSQYEGWMIHAAAQGLDTRLLGRRELAERLPGAADLWQGGLFTASDARAEPWLAVPALAAGAAERGVTILEDCAVRALDLEGGRVAGVTTERGRIRAPEVVLAGGAWSSLFARAHGVNLPQLSVLSSVAQTEPLPEILPGAAADDAFAFRRREDGGYTIAGGSEHDFFIGPDAFRHALKYRKAVKKDFLSTHYRWLAPRDYPDGWNTPRTWSKGAPTPFEAMRVLNPAPNLATLSRAAAAFGRAFPGVGRPKIRATWAGMIDTMPDVVPVIDRAPSVPGLTIATGMSGHGFGIGPGVGRVVADLVAGRPVGHDLTRFRLSRFTDGSEITLGPSL,not soluble
2,MAAETTSEDVKLAASFKDASKLGIDQKSGIPRKVKGTLTWRLELKRTNDGFWISAFFKGASKKKISIKAEFTLLCAGQEPLNKTEKKDSDCTKKSTEYEVCAMFTECETENHFEKGSDLRFEVELTIVMENSSKKSSVKPKPEAKQEPTKENDKIVGSESMMLDQLTSKLFLKASEGARIISNEIINDLLDIANRFDVPEVKTKCEQFLLEDLKKALKEKMETAEKYELDCLQAVKSADDALANSLEKLAIK,not soluble
3,MGSDKIHHHHHHVGCMKWDYGKMEPFRATGDGLFIMNEGNFQYGNATLSYYDPETKKVENEIFYRANAMKLGDVAQSMIVRDTIGWVVVNNSHVIFAISTNTFKEVGRITGLTSPRYIHFISDEKAYITQIWDYRIFIVNPKTYQITGYIECPDMTMETGSTEQMVQYGKYVYVNCWSYQNRILKIDTTTDKVVDQLTVGIQPTSLVMDKNFKMWTITDGGYKGSPYGYEEPSLYRIDAETFKIEKQFKFQLGDAPSEVQLNGAGDELYWINKDIWRMSVDEERVPVRPFLKYRDTKYYGLTVSPKNGDVYVADAIDYQQQGMIYRYTEDGELVDEFYVGIIPGAFCWK,not soluble
4,MCMHLSSPALPIGGFSYSQGLEAAIELGLVHDEASTLAWIESQLVTVMARAEAPLWLLFEAWRAGDDAAAHGWNQWFHASRETRELRQETEQMGRSLARLAQELGWGTAATRAAVAALRPATLPAVHACACAMWALPREAGLGAYVFSWLENQVAAAIKGVPLGQMAGQRMLERLRAGLPAVLADARARAGATPPRLDTFAPQYALVSARHETQFSRLFRSAAALEHHHHHH,not soluble
5,MTIYPKLILDALATVRYPGTGKNLVEAGMVEDNIRIEGMKVSFSLIFEKPTDPFMKSVIKAAETAILTHVGKEVEIVGNISVKTVQAARPEVGKLLPHVKNIIGISSGKGGVGKSTVSANLAVALAKLGYKVGLLDADVFGPSMPKMFQVEDARPYAEKIDGRDMIIPVEKYGVKLLSIGFFVDPDQATLWRGGMASNALKQLIGDAAWGDLDYFLIDLPPGTSDIHLTVVQTLALTGAVVVSTPQAVALADARKGINMFTNDKVNVPILGLVENMAWFTPAELPENKYYLFGKEGAKKLAEEMNVPLLGQIPIVQSICEGGDKGTPVALDENTVTGRAFLALAASVVRQVDKRNVEMAPTKIVELHKLEHHHHHH,soluble
6,MAHHHHHHMQKSNEKNGPENNAKNGPENNAKNGPENNAKKGPENNAKKGPENNAKKGPENNAKKGPENNAKKGPENKEKKGHSCCGKKGSTGNPKEKKKSDKNSEDNKNSQGDKISKDHAECTPSLHVECAHNCCKKKLAFIYDCWDNFKSYKNIIEQHTKGQQENNFQLQGAGDEDSGEDGGASTTGHSMAMAMPMSFQLSTHTIILFKFWETKTVSRAGIPSQWRLLSGTP,soluble
7,MQKSKRNAKKKAVSTREKSARSSRGTNKSQRSARSKMAKPRTAETREDAYSCHRTMEEKSTNQQYSALSVRSETTSKVKKLPSKLDASLSARKKGKKESNEEDKKMRDSERQKREKKEVPKEMRQSMMGSVFEEIEGPVSPAPLEKDENKMEWKIDVDPVVLTGDQRMSDVLGKMKDLKKNSGWKKCKVLKANEKTPDNDDEPTEESIYLSARVLQLVKMESLISKEVSKEDQEILRGYCRSNDHKDKVEPIFEAIAVSILEKVASKNEFIRNVSIPGQLRMFAVDENKSKFSTMALLIVRCDLFYYSWNKPALDDEDQLDPTWANMTRRPSVTPPDSQ,not soluble
8,GPHVKSGLQIKKNAIIDDYKVTSQVLGLGINGKVLQIFNKRTQEKFALKMLQDCPKARREVELHWRASQCPHIVRIVDVYENLYAGRKCLLIVMECLDGGELFSRIQDRGDQAFTEREASEIMKSIGEAIQYLHSINIAHRDVKPENLLYTSKRPNAILKLTDFGFAKETTGEKYDKSCDMWSLGVIMYILLCGYPPFYSNHGLAISPGMKTRIRMGQYEFPNPEWSEVSEEVKMLIRNLLKTEPTQRMTITEFMNHPWIMQSTKVPQTPLHTSRVLKEDKERWEDVKEEMTSALATMR,soluble
9,MSLNVDPNITKYVIKAKIVTDGVVEKPDVVGAIFGQTEGLLGEELDLRDLQKSGKIGRIEVEIDTKKGRTEGFVLIPSGLDQVESSILAAALETIDRIGPCKAKVDIEDVEDVRINKRDKVIQRAEELYKKMGTNGKSLSESIIQSVREEVEKKEILSYGEEHLPAGPAVGTSDSIIVVEGRNDVLNLLRYGIKNTIAVQGTSVPKTVKELSKARTVTLFVDGDHGGELIIKEMLQVADVDFIARAPPGTEVEELTYKQIVKALKYKAPVNQYLESHGMIEELKEFTEKNNKAIADMNVNTTVKEEPQQKKQEKEPKHVETAEVEAPVIEEINDINDPRFVRNKLNELFESKAVEIYDDAGNPIARYPVSDAAELMQSVKNGTTIISGGVISQRFVDIAFSMGVKSIYGMKIGHVTKKPDEIRVVTWEHMEGHHHHHH,soluble
10,MQKYTIVDLNEKAEAELAAIAGELGIANAGSMPKQELIYKILDEQAISVAGVRKEKQKTTEDRHTERRKPGRPRKNAEEEAPESEDVAAAPAEPNDEEAQAKRKRGRPRKAAEEIAEETREDVQQLVALAAAEETNATEKESAGRKPAAKTSTASPAKAPAKALPRPAETTPRVAPSPPPTTPVSEPAKDDAKPETPAPPPAIESITTTPAAGAVDEGGARRLVFRHKNSSSVLDQVLPYSSPQPPQRPKPAGAPVGSSPIRQRQAAGVPTPRREPQQPLYNFDGILECM,not soluble
11,METQENMIKTALQAAQKPFFEFAPNNTPLVFTPDQDGGWRYKSHPELMQNPYRKCGKFLMHDTASLIKFVQKHKQDGTQIYIDADFKSGRIDVTAVINGHTQQAPGWLDFYAVYTPQHTTSASNWLNNNAHRMNQMEFSHFLTNNARNIVSKNPGNENSVYPTAAEVLDFALNLEYTEKTTFKQGYREQDGRINFTFQSEDSGQTEKNLKMFERFGIEFTPHQGGASYFVEALLKFRIDKNSGALVLWYELQQIDAVIEQAAKDISEAVQKAFPEIDIYFGVIA,soluble
12,MEARNAEGLESCIEKIQEVKLSSFAELKAFRERKVALITGITGQDGSYLAELLLSKGYKVHGIIRRSSSFNTARIEHLYGNPVTHNGSASFSLHYGDMTDSSCLIKLISTIEPTEIYHLAAQSHVKVSFDLPEYTAEVDAVGTLRLLDAIHACRLTEKVRFYQASTSELYGKVQEIPQSELTPFYPRSPYAVAKMYGYWIVVNYREAYKMFACNGILFNHESPRRGETFVTRKITRSVAKISLRQQEHIELGNLSALRDWGHAKEYVEAMWRILQQDTPDDFVIATGKQFSVREFCNLAFAEIGEQLVWEGEGVDEVGKNQDGVVRVKVSPKYYRPTEVETLLGNPAKARKTLGWEPKITVPELVKEMVASDIALMEADPMA,not soluble
13,MAHHHHHHMKLNIAYPRNGTVKQFEISDEVLRRVQLQDYRLGNEVDGAIFGSEFKGYIFRLRGGSDKDGFPMVPGVLASSRVSLLVKRGAIGFNTFRGYQGERRRKNVRGCVLASDIALVNVTISKVGDQPIEGVTDTTAPRRLGP,not soluble
14,MTAKKEHLFIVFENLIKIKSECSCEIFSECGISDITVKQIGYLKAIDEHGEVTFSRLAKITKNSKPTITEMVNKFVRMECVYREKCPEDGRIFYIRLTEKGQRIARAEESSLLRVIEKMAESLNEKEIETLIRILGKVR,not soluble
15,MAAMRKALPRRLVGLASLRAVSTSSMGTLPKRVKIVEVGPRDGLQNEKNIVSTPVKIKLIDMLSEAGLSVIETTSFVSPKWVPQMGDHTEVLKGIQKFPGINYPVLTPNLKGFEAAVAAGAKEVVIFGAASELFTKKNINCSIEESFQRFDAILKAAQSANISVRGYVSCALGCPYEGKISPAKVAEVTKKFYSMGCYEISLGDTIGVGTPGIMKDMLSAVMQEVPLAALAVHCHDTYGQALTNTLMALQMGVSVVDSSVAGLGGCPYAQGASGNLATEDLVYMLEGLGIHTGVNLQKLLEAGNFICQALNRKTSSKVAQATCKL,soluble
16,AGENLYFQSLMNNFGNEEFDCHFLDEGFTAKDILDQKINEVSSSDDKDAFYVADLGDILKKHLRWLKALPRVTPFYAVKCNDSKAIVKTLAATGTGFDCASKTEIQLVQSLGVPPERIIYANPCKQVSQIKYAANNGVQMMTFDSEVELMKVARAHPKAKLVLRIATDDSKAVCRLSVKFGATLRTSRLLLERAKELNIDVVGVSFHVGSGCTDPETFVQAISDARCVFDMGAEVGFSMYLLDIGGGFPGSEDVKLKFEEITGVINPALDKYFPSDSGVRIIAEPGRYYVASAFTLAVNIIAKKIVLKEQTGSDDEDESSEQTFMYYVNDGVYGSFNCILYDHAHVKPLLQKRPKPDEKYYSSSIWGPTCDGLDRIVERCDLPEMHVGDWMLFENMGAYTVAAASTFNGFQRPTIYYVMSGPAWQLMQQFQNPDFPPEVEEQDASTLPVSCAWESGMKRHRAACASASINV,soluble
17,NVVETKALFVSTNDLARRLQKLNNEQKIQSNRLKTTIENIPSAILMIDRNGKIVVANKAYYEQFNISHNIEQVGYHGYVNTEIEQLILESFKVEKPIYEQLEVAINQVHAKYFDISCVPILTRSQKSLQGILVVMHD,not soluble
18,MGSDKIHHHHHHMGKKNYGKSVKTRLLNLMNETGYKYMYLLARYFNERLLYRVSVSQYKDNFLLKGGSLLYAMNGLEARPTVDVDFMADRISRDRDFLARVFQEILGIVCDEDGVSFDAGSIKIEPITVEKKYPGTRFYFTAHMDTIAYNMSVDIGFGDVVIPHPTTIDFPLLLPDIPSVNIQAYSLETVIAEKFHTMIDRDVLNSRMKDFFDCYQLLTKRNLNDDALYDAIEATFDNRGLAYNPDLQLFTDSFATDRARISRWKAFLRKIQWKEALDFDTVMKAIRDRLQPMAEKYWIKLSK,not soluble
19,SNRLPDDYDPYAVEEPSDEEPALSSSEDEVDVLLHGTPDQKRKLIRECLTGESESSSEDEFEKEMEAELNSTMKTMEDKLSSLGTGSSSGNGKVATAPTRYYDDIYFDSDSEDEDRAVQVTKKKKKKQHKIPTNDELLYDPEKDNRDQAWVDAQRRGYHGLGPQRSREQQPVPNSDAVLNCPACMTTLCLDCQRHESYKTQYRAMFVMNCSINKEEVLRYKASENRKKRRVHKKMRSNQEDAAEKAETDVEEIYHPVMCTECSTEVAVYDKDEVFHFFNVLASHS,soluble
